Common to all, as to assay: SPR, mAb captured, C2 mutant analyte;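 further: Anti-C2 mAbs captured on goat anti-human IgG Biacore CM5 chips, alanine or serine C2 surface mutants flowed over at 37 °C, double-referenced sensorgrams fitted to a 1:1 binding model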
In general terms: SPR reads the build-up and loss of mass on a sensor chip optically.

The target in one test is T1, human C2 E450A (human, UniProt P06681 21-752).
T1 sequence: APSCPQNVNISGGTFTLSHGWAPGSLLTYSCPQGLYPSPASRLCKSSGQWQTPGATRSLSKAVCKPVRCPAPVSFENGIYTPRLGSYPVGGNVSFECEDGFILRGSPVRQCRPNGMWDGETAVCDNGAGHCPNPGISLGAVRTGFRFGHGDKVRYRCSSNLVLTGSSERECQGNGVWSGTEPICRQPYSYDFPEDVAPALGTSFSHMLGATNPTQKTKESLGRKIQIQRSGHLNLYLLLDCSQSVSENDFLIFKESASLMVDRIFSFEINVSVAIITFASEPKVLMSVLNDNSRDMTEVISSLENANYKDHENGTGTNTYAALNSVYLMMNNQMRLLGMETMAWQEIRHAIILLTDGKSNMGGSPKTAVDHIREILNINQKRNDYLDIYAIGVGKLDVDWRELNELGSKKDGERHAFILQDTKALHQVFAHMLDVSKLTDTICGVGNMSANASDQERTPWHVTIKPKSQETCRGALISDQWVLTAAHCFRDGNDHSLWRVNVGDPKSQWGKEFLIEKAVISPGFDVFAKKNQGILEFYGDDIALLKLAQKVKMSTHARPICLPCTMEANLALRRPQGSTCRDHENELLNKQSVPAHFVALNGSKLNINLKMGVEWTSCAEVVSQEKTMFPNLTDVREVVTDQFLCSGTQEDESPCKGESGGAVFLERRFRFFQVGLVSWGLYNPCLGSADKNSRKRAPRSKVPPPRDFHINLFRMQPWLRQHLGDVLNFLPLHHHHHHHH

A further test concerns the target T2, human C2 N424A (human, UniProt P06681 21-752).
T2 sequence: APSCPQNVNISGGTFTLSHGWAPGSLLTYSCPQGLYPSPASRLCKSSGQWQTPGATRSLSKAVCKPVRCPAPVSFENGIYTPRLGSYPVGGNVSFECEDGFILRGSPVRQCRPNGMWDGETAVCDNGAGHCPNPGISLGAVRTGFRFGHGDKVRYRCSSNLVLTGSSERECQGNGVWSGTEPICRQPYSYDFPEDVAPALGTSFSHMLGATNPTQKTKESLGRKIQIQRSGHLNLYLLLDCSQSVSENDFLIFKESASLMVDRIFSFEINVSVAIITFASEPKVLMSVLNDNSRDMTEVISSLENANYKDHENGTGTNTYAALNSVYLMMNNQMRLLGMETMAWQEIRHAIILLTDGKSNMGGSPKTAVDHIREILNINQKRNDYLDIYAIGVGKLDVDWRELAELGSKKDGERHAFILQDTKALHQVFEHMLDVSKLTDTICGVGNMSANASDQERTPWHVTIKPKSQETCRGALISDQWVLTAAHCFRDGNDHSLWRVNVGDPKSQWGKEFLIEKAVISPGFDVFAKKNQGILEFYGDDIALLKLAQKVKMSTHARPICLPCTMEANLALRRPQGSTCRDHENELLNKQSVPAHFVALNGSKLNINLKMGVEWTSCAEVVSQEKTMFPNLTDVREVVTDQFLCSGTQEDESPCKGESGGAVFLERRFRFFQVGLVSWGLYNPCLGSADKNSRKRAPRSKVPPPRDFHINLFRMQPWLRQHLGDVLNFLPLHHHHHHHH

The next test addresses T3, human C2 T317A (human, UniProt P06681 21-752).
T3 sequence: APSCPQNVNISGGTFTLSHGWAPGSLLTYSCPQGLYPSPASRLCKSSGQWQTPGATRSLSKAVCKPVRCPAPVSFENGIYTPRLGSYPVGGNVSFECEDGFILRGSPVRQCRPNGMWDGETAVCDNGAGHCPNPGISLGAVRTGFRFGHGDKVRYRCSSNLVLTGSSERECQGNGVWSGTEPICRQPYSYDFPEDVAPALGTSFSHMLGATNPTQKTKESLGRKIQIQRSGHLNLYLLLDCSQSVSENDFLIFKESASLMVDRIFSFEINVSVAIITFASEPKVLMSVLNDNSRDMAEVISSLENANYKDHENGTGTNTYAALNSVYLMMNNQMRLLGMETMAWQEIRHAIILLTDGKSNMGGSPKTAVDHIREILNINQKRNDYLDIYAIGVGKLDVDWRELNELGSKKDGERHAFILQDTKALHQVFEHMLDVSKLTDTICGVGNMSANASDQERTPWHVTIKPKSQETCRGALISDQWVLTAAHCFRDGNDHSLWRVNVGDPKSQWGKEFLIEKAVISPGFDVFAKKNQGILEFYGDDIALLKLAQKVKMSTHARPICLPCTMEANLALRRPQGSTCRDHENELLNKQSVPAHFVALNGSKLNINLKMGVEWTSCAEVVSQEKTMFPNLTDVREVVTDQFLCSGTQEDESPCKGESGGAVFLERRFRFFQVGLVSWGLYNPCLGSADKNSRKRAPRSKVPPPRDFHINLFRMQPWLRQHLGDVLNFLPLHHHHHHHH

Another test addresses T4, human C2 T442A (human, UniProt P06681 21-752).
T4 sequence: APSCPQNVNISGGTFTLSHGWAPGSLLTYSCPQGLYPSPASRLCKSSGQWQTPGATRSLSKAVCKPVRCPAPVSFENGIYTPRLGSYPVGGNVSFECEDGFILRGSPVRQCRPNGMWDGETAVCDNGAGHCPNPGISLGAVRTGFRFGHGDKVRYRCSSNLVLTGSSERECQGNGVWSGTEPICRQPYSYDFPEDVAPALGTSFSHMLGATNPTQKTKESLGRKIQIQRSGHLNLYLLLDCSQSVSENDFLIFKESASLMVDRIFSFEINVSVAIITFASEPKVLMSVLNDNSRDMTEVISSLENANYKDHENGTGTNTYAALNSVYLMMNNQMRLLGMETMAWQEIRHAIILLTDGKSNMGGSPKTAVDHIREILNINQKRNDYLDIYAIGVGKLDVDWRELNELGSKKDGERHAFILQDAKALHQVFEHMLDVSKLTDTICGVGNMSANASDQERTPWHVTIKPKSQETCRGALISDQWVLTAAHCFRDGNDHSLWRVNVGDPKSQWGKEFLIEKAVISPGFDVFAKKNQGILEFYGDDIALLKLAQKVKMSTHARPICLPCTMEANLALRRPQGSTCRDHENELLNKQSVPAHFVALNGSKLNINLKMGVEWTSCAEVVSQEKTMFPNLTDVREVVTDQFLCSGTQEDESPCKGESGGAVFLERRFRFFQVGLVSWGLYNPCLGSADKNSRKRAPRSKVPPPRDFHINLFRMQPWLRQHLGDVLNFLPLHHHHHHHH

B1: RF16-214 (antibody, V domains shown)
VH: EVQLLESGGGLVQPGGSLRLSCAASGFTFSWYQMMWVRQAPGKGLEWVSRIYPSGGGTAYADSVKGRFTISRDNSKNTLYLQMNSLRAEDTAVYYCARDAGYGDNWGQGTLVTVSS
VL: QSALTQPPSVSVSPGQTASITCSGDKLGEKYASWYQQKAGQSPVMVIYQDRKRPSGIPERFSGSNSGNTATLTISGTQAMDEADYYCQAWDTRAVVFGGGTKLTVLG
Take B1: the Kd in the test with human C2 E450A amounted to 627 nM; with human C2 N424A, 16.1 nM; with human C2 T317A, 27.9 nM; in the test with human C2 T442A, 70.7 nM.

One may read the Kd as a measure of binding affinity in units of concentration.

Values taken from patent US20220332804A1 (CSL INNOVATION, published 2022).
